Reference: the supplement of paper PMC7877785
± gives the uncertainty stated by the source.

Experiment: self-splicing fitness, log relative to wild type (ln ratio); higher = more splicing; Tetrahymena group I intron in knt gene, E. coli kanamycin selection, DiMSum; sequences stand for … in CUCUCU…GGAGGGAAAAGUUAUCAGGCAUGCACCUGGUAGCUAGUCUUUAAACCAAUAGAUUGCAUCGGUUUAAAAGGCAAGACCGUCAAAUUGCGGGAAAGGGGUCAACAGCCGUUCAGUACCAAGUCUCAGGGGAAACUUUGAGAUGGCCUUGCAAAGGGUAUGGUAAUAAGCUGACGGACAUGGUCCUAACCACGCAGCCAAGUCCUAAGUCAACAGAUCUUCUGUUGAUAUGGAUGCAGUUCACAGACUAAAUGUCGGUCGGGGAAGAUGUAUUCUUCUCAUAAGAUAUAGUCGGACCUCUCCUUAAUGGGAGCUAGCGGAUGAAGUGAUGCAACACUGGAGCCGCUGGGAACUAAUUUGUAUGCGAAAGUAUAUUGAUUAGUUUUGGAGUACUCGUGGUCG
How it was run: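 Six replicate transformations of E. coli BL21(DE3) with a pET-22b(+) library were grown overnight at 37°C or 30°C. The library randomised all eight P1ex-region intron nucleotides, the intron lying in the knt kanamycin-resistance gene, and plates were LB agar with or without 25 μg/mL kanamycin plus 100 μg/mL carbenicillin, 50 μM IPTG and 0.2% rhamnose. Pooled colonies were amplicon-sequenced on an Illumina HiSeq 2500, and fitness is the DiMSum error-weighted combination of wild-type-normalised replicate fold changes, kanamycin versus none.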

Row | Sequence | self-splicing fitness (ln) (30 °C) | self-splicing fitness (ln) (37 °C)
1 | UCUCAGCAAUAUUACGCCGC | -2.99 ± 0.34 | -1.52 ± 0.36
2 | ACCUAGCAAUAUUACGCAGG | -3.34 ± 0.23 | -2.73 ± 0.26
3 | GGAAAGCAAUAUUACGGCGA | -0.475 ± 0.1 | -0.211 ± 0.089
4 | CCUUAGCAAUAUUACGGAAG | -2.61 ± 0.14 | -1.13 ± 0.14
5 | UUAUAGCAAUAUUACGGAUC | -3.02 ± 0.45 | 
6 | CGAUAGCAAUAUUACGAGCG | -0.984 ± 0.12 | -0.453 ± 0.13
7 | GCCUAGCAAUAUUACGGGAC | -2.4 ± 0.13 | -0.0283 ± 0.1
8 | UAUAAGCAAUAUUACGGUGA | -1 ± 0.13 | -0.726 ± 0.13
9 | ACCUAGCAAUAUUACGGUUG | -3.37 ± 0.13 | -2.71 ± 0.17
10 | CUGUAGCAAUAUUACGUGCC | -3.49 ± 0.35 | -2.21 ± 0.24
11 | GCAUAGCAAUAUUACGUGAG | -0.159 ± 0.069 | -0.351 ± 0.083
12 | GGAAAGCAAUAUUACGUCGG | -3.51 ± 0.36 | 
13 | CCGUAGCAAUAUUACGUUCC | -3.11 ± 0.47 | 
14 | GCAUAGCAAUAUUACGGAGG | -3.03 ± 0.12 | -3.37 ± 0.21
15 | ACAAAGCAAUAUUACGAAAA | -2.93 ± 0.25 | -2.42 ± 0.27
16 | AGCUAGCAAUAUUACGACAG | -2.36 ± 0.21 | -1.64 ± 0.24
17 | UUCGAGCAAUAUUACGCCUG | -3.17 ± 0.29 | -2.64 ± 0.2
18 | GCUUAGCAAUAUUACGGCUG | -3.18 ± 0.28 | -2.21 ± 0.28
19 | GUACAGCAAUAUUACGCUUU | -2.99 ± 0.12 | -1.19 ± 0.12
20 | GGUGAGCAAUAUUACGUGAA | -1.76 ± 0.36 | -1.27 ± 0.32

Row | Sequence | self-splicing fitness (ln) (30 °C) | self-splicing fitness (ln) (37 °C)
21 | UAGGAGCAAUAUUACGUGCG | -2.89 ± 0.17 | -0.951 ± 0.16
22 | CACAAGCAAUAUUACGCACA | -1.08 ± 0.087 | -0.518 ± 0.098
23 | CGCGAGCAAUAUUACGACCU | -0.582 ± 0.16 | -1.81 ± 0.21
24 | GCUGAGCAAUAUUACGGGCG | -1.83 ± 0.14 | 0.15 ± 0.15
25 | CGAUAGCAAUAUUACGACCA | -0.39 ± 0.46 | -0.619 ± 0.33
26 | AAAAAGCAAUAUUACGCAGC | -1.99 ± 0.13 | -2.19 ± 0.19
27 | GUUAAGCAAUAUUACGCCUC | -1.41 ± 0.25 | 0.196 ± 0.31
28 | AUUGAGCAAUAUUACGGGCU | -4.12 ± 0.36 | -2.25 ± 0.42
29 | GGGCAGCAAUAUUACGUACA | -0.35 ± 0.084 | -0.0196 ± 0.1
30 | GGUGAGCAAUAUUACGCGGU |  | -1.5 ± 0.42
31 | UAAAAGCAAUAUUACGACUG | 0.248 ± 0.1 | -0.671 ± 0.12
32 | CAGGAGCAAUAUUACGCACA | -2.48 ± 0.24 | -1.88 ± 0.23
33 | GCUAAGCAAUAUUACGUGCG | -1.07 ± 0.086 | 0.103 ± 0.1
34 | UGCUAGCAAUAUUACGAGUA | -1.34 ± 0.072 | -0.447 ± 0.076
35 | UCCGAGCAAUAUUACGGCGA | -0.0162 ± 0.1 | -0.0341 ± 0.12
36 | GUCGAGCAAUAUUACGAGGA |  | -2.44 ± 0.49
37 | GUCCAGCAAUAUUACGUACG | -1.58 ± 0.07 | -1.14 ± 0.1
38 | UCACAGCAAUAUUACGUAUA | -2.64 ± 0.12 | -1.37 ± 0.1
39 | CUCAAGCAAUAUUACGAAGG | -1.11 ± 0.071 | -1.42 ± 0.15
